B1: ZY0EOB-F05 murine IgG1 (antibody, V domains shown)
VH: QVQLQESGPGLVKPSQTLSLTCTVSDGSISSGGYYWSWIRQHPGKGLEWIGNIYYSGSTYYNPSLKSRVTISVDTSKNQFSLKLNSVTAADTAVYYCATEKALATVTPSGYENYYTVDVWGQGTTVTVSS
VL: DIQLTQSPSFLSASVGDRVTITCWASQGISSYLAWYQQKPGKAPKLLIYAASTLQSGVPSRFSGSGSGTEFTLTISSLQPEDFATYYCQHLNSYPLTFGGGTKVEIK
B2: ZY0EO5-E07 murine IgG1 (antibody, V domains shown)
VH: QVQLQESGPGLVKPSQTLSLTCTVSGGSISSGGYYWSWIRQHPGKGLEWIGNIYYSGSTYYNPSLKSRVTISVDTSKNQFSLKLSSVTAADTAVYYCAREKALASVIPSGYENYYVVDVWGQGTTVTVSS
VL: DIQLTQSPSFLSASVGGRVTITCWASQGIAGYLAWYQQKPGKAPKLLIYAASTLQSGVPSRFSGSGSGTEFTLTISSLQPEDFATYYCQHLNSYPLTFGGGTKVEIK
notes: also called ZY0E05-E07; E05-E07
B3: human ZY0EO5-E07 (antibody, V domains shown)
VH: QVQLQESGPGLVKPSQTLSLTCTVSGGSISSGGYYWSWIRQHPGKGLEWIGNIYYSGSTYYNPSLKSRVTISVDTSKNQFSLKLSSVTAADTAVYYCAREKALASVIPSGYENYYVVDVWGQGTTVTVSS
VL: DIQLTQSPSFLSASVGGRVTITCWASQGIAGYLAWYQQKPGKAPKLLIYAASTLQSGVPSRFSGSGSGTEFTLTISSLQPEDFATYYCQHLNSYPLTFGGGTKVEIK
B4: human ZY0EP0-C07 (antibody, V domains shown)
VH: QVQLVESGGVLVKPGGSLRLSCAASGFTLSDYYMSWIRQAPGMGLEWVSYISSSGSTIYYTDSVKGRFTISRDSAKNSLYLQMNSLRAEDTAVYYCARDGVGFDYWGQGTLVTVSS
VL: EIVLTQSPGTLSLFPGERATLSCRASQSVSSSYLAWYQQKPGQSPRLLIYAASSRATGIPDRFSGSGSGTDFTLTISRLEPEDFAVYYCQQYGSSPLYTFGQGTKLEIK
B5: human ZY0EOB-F05 (antibody, V domains shown)
VH: QVQLQESGPGLVKPSQTLSLTCTVSDGSISSGGYYWSWIRQHPGKGLEWIGNIYYSGSTYYNPSLKSRVTISVDTSKNQFSLKLNSVTAADTAVYYCATEKALATVTPSGYENYYTVDVWGQGTTVTVSS
VL: DIQLTQSPSFLSASVGDRVTITCWASQGISSYLAWYQQKPGKAPKLLIYAASTLQSGVPSRFSGSGSGTEFTLTISSLQPEDFATYYCQHLNSYPLTFGGGTKVEIK

What was measured:
[1] = biological target: T1, huBTN2A1 (human, UniProt Q7KYR7 29-248, limits assumed); assay: ELISA
T1 construct: Sourced antigen; construct not described; also called Human BTN2A1
T1 sequence (looked up): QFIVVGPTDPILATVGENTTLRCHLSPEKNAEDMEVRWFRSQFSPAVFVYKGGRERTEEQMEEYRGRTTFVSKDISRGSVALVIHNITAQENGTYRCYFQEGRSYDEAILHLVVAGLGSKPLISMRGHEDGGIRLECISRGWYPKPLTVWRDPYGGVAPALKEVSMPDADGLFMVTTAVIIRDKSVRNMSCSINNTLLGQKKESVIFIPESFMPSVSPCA

[2] = biological target: T2, huBTNL3 (human, UniProt Q6UXE8 18-237, limits assumed); assay: ELISA
T2 construct: Sourced antigen; construct not described; also called Human BTNL3
T2 sequence (looked up): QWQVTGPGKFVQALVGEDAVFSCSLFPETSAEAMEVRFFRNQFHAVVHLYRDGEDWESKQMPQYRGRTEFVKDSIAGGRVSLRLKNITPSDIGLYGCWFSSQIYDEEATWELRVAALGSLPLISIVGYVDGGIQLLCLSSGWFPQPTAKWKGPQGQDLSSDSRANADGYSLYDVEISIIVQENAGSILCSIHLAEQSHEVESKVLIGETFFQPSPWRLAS

[3] = biological target: T3, Human B7-H4-Fc (Human B7H4 ECD, Fc_6His) (human); assay: HTRF binding, murine IgG1
T3 construct: also called FcHis6 tagged human B7-H4
T3 sequence (Q7Z7D3 whole entry, looked up): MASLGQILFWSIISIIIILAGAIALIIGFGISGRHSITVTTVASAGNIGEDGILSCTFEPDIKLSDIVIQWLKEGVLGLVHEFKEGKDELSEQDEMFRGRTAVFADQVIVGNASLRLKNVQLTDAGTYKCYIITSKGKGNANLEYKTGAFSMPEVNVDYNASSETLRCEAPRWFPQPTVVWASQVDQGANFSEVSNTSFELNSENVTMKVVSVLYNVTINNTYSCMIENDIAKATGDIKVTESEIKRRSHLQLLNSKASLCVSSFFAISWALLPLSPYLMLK

[4] = biological target: T4, Cyno B7-H4-Fc (Cyno B7H4 ECD, FcTM_6His) (cynomolgus monkey); assay: HTRF binding, murine IgG1
T4 construct: extracellular domain; also called cynomolgus B7-H4-Fc

[5] = biological target: T5, Murine B7-H4-Fc (Mouse B7H4 ECD, Fc_6His) (mouse, UniProt Q7TSP5 25-257); assay: HTRF binding, murine IgG1
T5 construct: extracellular domain; also called mouse B7-H4-Fc; FcHis6 tagged murine B7-H4
T5 sequence (Q7TSP5 whole entry, looked up): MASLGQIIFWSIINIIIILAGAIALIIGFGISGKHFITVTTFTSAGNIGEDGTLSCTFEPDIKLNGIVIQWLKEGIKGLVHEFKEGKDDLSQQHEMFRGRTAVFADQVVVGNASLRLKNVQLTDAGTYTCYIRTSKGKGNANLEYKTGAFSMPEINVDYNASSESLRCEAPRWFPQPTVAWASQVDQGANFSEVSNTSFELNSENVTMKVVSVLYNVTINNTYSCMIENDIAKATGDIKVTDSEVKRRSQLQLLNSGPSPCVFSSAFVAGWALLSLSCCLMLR

[6] = biological target: T6, huHHLA2 (human, UniProt Q9UM44 23-344); assay: ELISA, absorbance 450 nm, antigen human HHLA2 GST
T6 construct: Sourced antigen; construct not described; also called Human HHLA2
T6 sequence (looked up): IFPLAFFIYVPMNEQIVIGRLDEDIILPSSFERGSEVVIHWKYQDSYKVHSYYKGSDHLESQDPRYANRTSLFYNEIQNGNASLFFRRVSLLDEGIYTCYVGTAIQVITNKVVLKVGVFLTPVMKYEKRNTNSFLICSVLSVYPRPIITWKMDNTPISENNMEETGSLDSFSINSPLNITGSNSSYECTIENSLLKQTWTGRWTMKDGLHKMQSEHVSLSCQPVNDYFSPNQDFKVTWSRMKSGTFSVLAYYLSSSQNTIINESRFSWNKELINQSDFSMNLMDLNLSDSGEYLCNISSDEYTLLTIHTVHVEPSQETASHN

[7] = biological target: T7, huBTN1A1 (human, UniProt Q13410 27-242, limits assumed); assay: ELISA, absorbance 450 nm, antigen human BTN1A1 GST
T7 construct: Sourced antigen; construct not described; also called Human BTN1A1
T7 sequence (looked up): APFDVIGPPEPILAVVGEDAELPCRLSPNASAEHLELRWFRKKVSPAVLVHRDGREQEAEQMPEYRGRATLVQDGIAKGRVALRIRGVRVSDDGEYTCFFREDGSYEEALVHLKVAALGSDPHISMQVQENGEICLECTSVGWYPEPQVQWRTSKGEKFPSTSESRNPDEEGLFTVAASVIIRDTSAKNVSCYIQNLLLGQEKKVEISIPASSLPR

[8] = biological target: T8, huBTN3A2 (human, UniProt P78410 30-248, limits assumed); assay: ELISA, absorbance 450 nm, antigen human BTN3A2 GST
T8 construct: Sourced antigen; construct not described; also called Human BTN3A2
T8 sequence (P78410 30-248 limits assumed): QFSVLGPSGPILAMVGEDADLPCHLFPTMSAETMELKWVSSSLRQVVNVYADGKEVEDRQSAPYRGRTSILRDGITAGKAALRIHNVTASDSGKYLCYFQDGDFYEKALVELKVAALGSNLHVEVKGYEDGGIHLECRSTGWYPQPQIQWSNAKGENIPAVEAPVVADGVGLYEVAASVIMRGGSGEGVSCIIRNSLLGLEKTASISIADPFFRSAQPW

[9] = biological target: T9, huB7-H3 (human, UniProt Q5ZPR3 29-461, limits assumed); assay: ELISA, absorbance 450 nm, antigen human B7-H3 (ECD) Fc
T9 construct: Sourced antigen; construct not described; also called Human B7-H3
T9 sequence (looked up): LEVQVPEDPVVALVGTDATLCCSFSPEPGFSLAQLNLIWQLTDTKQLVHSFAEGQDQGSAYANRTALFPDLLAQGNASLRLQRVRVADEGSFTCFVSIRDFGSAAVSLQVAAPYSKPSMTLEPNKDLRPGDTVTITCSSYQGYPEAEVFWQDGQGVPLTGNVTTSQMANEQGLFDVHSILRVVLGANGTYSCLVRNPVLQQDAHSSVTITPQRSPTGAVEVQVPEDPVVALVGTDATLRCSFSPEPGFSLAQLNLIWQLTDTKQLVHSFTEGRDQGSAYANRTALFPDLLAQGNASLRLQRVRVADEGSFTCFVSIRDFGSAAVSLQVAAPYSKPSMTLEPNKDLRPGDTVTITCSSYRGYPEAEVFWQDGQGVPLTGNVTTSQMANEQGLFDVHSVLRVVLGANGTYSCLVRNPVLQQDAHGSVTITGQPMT

[10] = biological target: T10, huB7-H1 (human, UniProt Q9NZQ7 19-238); assay: ELISA, absorbance 450 nm, antigen human B7-H1(ECD) F10H
T10 construct: Sourced antigen; construct not described; also called Human B7-H1
T10 sequence (Q9NZQ7 19-238 limits assumed): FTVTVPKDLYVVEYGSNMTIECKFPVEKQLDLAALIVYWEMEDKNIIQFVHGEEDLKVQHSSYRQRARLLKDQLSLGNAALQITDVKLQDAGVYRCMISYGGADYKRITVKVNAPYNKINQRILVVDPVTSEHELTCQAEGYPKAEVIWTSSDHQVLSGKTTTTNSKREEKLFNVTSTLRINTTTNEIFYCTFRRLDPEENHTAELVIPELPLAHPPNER

[11] = biological target: T11, huB7-H2 (human, UniProt O75144 19-258); assay: ELISA, absorbance 450 nm, antigen human B7-H2 (ECD) F10H
T11 construct: Sourced antigen; construct not described; also called Human B7-H2
T11 sequence (looked up): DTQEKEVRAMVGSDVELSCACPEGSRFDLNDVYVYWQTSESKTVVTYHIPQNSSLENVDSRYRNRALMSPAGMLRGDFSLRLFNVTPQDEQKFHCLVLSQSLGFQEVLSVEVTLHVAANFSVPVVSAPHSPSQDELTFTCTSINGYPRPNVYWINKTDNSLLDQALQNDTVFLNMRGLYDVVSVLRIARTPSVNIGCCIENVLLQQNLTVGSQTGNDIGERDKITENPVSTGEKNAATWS

Binder | binding result [1] | binding result [2] | EC50 [3] [nM] | Max [3] | EC50 [4] [nM] | Max [4] | EC50 [5] [nM] | Max [5] | binding result [6] | binding result [7] | binding result [8] | binding result [9] | binding result [10] | binding result [11]
B1 | no binding | no binding | 0.3 | 3020 | 0.32 | 2400 | 0.38 | 2190 | no binding (tested: about 10 µg/ml (antigen)) | no binding (tested: 10 µg/ml (antigen)) | no binding (tested: about 10 µg/ml (antigen)) | no binding | no binding (tested: 10 µg/ml (antigen)) | no binding (tested: 10 µg/ml (antigen))
B2 | no binding | no binding | 0.68 | 2150 | 0.71 | 1700 | 0.73 | 1700 | no binding (tested: about 10 µg/ml (antigen)) | no binding (tested: 10 µg/ml (antigen)) | no binding (tested: about 10 µg/ml (antigen)) | no binding | no binding (tested: 10 µg/ml (antigen)) | no binding (tested: 10 µg/ml (antigen))
B3 | – | – | – | – | – | – | – | – | no binding (tested: about 10 µg/ml (antigen)) | no binding (tested: 10 µg/ml (antigen)) | no binding (tested: about 10 µg/ml (antigen)) | no binding | no binding (tested: 10 µg/ml (antigen)) | no binding (tested: 10 µg/ml (antigen))
B4 | – | – | – | – | – | – | – | – | no binding (tested: about 10 µg/ml (antigen)) | no binding (tested: 10 µg/ml (antigen)) | no binding (tested: about 10 µg/ml (antigen)) | no binding | no binding (tested: 10 µg/ml (antigen)) | no binding (tested: 10 µg/ml (antigen))
B5 | – | – | – | – | – | – | – | – | no binding (tested: about 10 µg/ml (antigen)) | no binding (tested: 10 µg/ml (antigen)) | no binding (tested: about 10 µg/ml (antigen)) | no binding | no binding (tested: 10 µg/ml (antigen)) | no binding (tested: 10 µg/ml (antigen))

From patent publication US20240239894A1 (AstraZeneca / MedImmune, published 2024)
